Measurements taken from PMC7022901, “Back to GroEL-Assisted Protein Folding: GroES Binding-Induced Displacement of Denatured Proteins from GroEL to Bulk Solution” (Biomolecules, 2020).

Assays:
[1] = target: T1, GroEL chaperonin (Escherichia coli, UniProt P0A6F5 1-548); experiment: native gel or EMSA; non-denaturing electrophoresis of GroEL with equimolar fluorescein-labeled denatured proteins in the presence of DTT and Mg-ADP, before and after 10 min incubation with a two-fold molar excess of GroES; Coomassie staining and fluorescence; details: both partners purified
T1 construct: GroEL (hsp60) chaperonin of Escherichia coli, expressed from the cloned groE operon; 14 identical subunits of 57 kDa in two heptameric rings; no tag is mentioned; also called hsp60; GroEL14; source: E. coli HB101, multicopy plasmid pGroE4 (groE operon of E. coli in pACYC184), purified; copies: 14

[2] = target: T1, GroEL chaperonin; experiment: FRET or BRET; streptavidin trap: denatured biotin- and fluorescein-labeled substrate diluted into equimolar GroEL, then streptavidin-aequorin and free biotin added; BRET (I520/I470) from aequorin to fluorescein reports substrate free in bulk solution; with or without 10 mM Mg-ATP and two-fold molar excess of GroES; details: both partners purified

T1 sequence (P0A6F5 whole entry): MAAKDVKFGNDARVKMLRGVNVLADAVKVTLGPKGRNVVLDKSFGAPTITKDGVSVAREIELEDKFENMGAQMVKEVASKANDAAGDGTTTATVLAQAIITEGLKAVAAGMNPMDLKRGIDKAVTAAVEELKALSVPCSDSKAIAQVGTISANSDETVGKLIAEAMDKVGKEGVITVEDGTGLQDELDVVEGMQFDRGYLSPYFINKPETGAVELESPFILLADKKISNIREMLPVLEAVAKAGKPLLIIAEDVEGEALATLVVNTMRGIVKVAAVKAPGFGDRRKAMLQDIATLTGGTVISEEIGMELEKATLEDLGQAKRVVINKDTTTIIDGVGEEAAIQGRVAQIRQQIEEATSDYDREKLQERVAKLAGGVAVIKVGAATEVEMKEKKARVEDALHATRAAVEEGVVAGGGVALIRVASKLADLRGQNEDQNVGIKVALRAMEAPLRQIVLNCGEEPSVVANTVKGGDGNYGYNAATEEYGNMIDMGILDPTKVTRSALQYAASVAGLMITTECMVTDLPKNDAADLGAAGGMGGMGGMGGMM

Row | binding result [1] | binding result [2] | Binder
1 | binds |  | GroES co-chaperonin (natural protein, Escherichia coli, UniProt P0A6F9 1-97, looked up, GroES (hsp10) co-chaperonin of Escherichia coli, expressed from the cloned groE operon; 7 identical subunits of ~10 kDa; no tag is mentioned; also called hsp10; GroES7; source: E. coli HB101, multicopy plasmid pGroE4 (groE operon of E. coli in pACYC184), purified) MNIRPLHDRVIVKRKEVETKSAGGIVLTGSAAAKSTRGEVLAVGNGRILENGEVKPLDVKVGDIVIFNDGYGVKSEKIDNEEVLIMSESDILAIVEA
2 |  | binds | biotin- and fluorescein-labeled pig mitochondrial malate dehydrogenase, early refolding intermediate (natural protein, UniProt P00346 25-338, looked up, fluorescein label (5(6)-FAM, SE); biotin (biotin succinimide ester), pig mitochondrial malate dehydrogenase; also called BFM; MDH; source: bought: Sigma or Serva, additionally purified by ion-exchange and size-exclusion chromatography) AKVAVLGASGGIGQPLSLLLKNSPLVSRLTLYDIAHTPGVAADLSHIETRATVKGYLGPEQLPDCLKGCDVVVIPAGVPRKPGMTRDDLFNTNATIVATLTAACAQHCPDAMICIISNPVNSTIPITAEVFKKHGVYNPNKIFGVTTLDIVRANAFVAELKGLDPARVSVPVIGGHAGKTIIPLISQCTPKVDFPQDQLSTLTGRIQEAGTEVVKAKAGAGSATLSMAYAGARFVFSLVDAMNGKEGVVECSFVKSQETDCPYFSTPLLLGKKGIEKNLGIGKISPFEEKMIAEAIPELKASIKKGEEFVKNMK
